The values that follow come from the supplement of paper PMC9170038.

In this data set the test system is K4 kissing-loop RNA reporter. Briefly: apparent KD of K4 kissing-loop reporter; higher = weaker reporter binding. The following applies: Eterna round: R107. The protocol: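 RNA-MaP round R107: designed RNA switches with theophylline, tryptophan, arginine or FMN aptamers are transcribed on-chip within common flanks. They are titrated with a labelled K4 kissing-loop RNA reporter in RNA-MaP buffer (100 mM Tris pH 7.5, 80 mM KCl, 4 mM MgCl2), without ligand or with the indicated ligand. Median apparent KD per design.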

Where [1] appears, read: input ligand: theophylline 20 uM.
Setting [2] is: input ligand: tryptophan 2.4 mM.
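Note: bound reporter read as fluorescence of individual clusters on recovered sequencing chips by microscopy, with normalized cluster intensities fitted with a binding model.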

For the sequence “GGAUCCACCAGUGAUGUUGGAGAAAACUUCAAGGAUAUGACGAAAGUCAGAAGGUGGUAGACUGGACAAAGUCCGGUAGGAUCCA [FmnA10 U29+A78]”, the “apparent KD of K4 kissing-loop reporter” value runs as follows: (input ligand: FMN 200 uM) 604 nM; (input ligand: arginine 13.2 mM) 395 nM; (input ligand: none) 490 nM; under setting [1], 570 nM; under setting [2], 528 nM.

With “GGAUCCUAGGCGGCCGCCACUCCAUCGUACCGAAAGGUAUGAUACCGAGUGAUGUUCGGUUGGAGGAGGACCGGGCCUAGGAUCC [#2 Exclusion - Tryptophan B Attempt #3 (HarryS)]”, the “apparent KD of K4 kissing-loop reporter” value by setting is: (input ligand: FMN 200 uM) 147 nM; (input ligand: arginine 13.2 mM) 112 nM; (input ligand: none) 124 nM; under setting [1], 127 nM; under setting [2], 112 nM.

For the sequence “GGAUUCGGCACGGCCGCCACUUCCGGUGGCUGGUGUCAUGGUGCGCGUGAGUGAUGUUUAUGUGGGAGGACCGGGUGUUGAGUCC [whbob_Ex_Tryp_B_w44]”, the “apparent KD of K4 kissing-loop reporter” value (input ligand: FMN 200 uM) was found to be 1020 nM; the “apparent KD of K4 kissing-loop reporter” value (input ligand: arginine 13.2 mM) is 433 nM; the “apparent KD of K4 kissing-loop reporter” value (input ligand: none) was 834 nM; the “apparent KD of K4 kissing-loop reporter” value under setting [1] is 1000 nM; the “apparent KD of K4 kissing-loop reporter” value under setting [2] worked out at 502 nM.

On to “GGCACGGGCUCGGCCGCCACUCCCGCGGGUCGUAAGGUCCGCUACUGAGUGAUGUUCGGUUGGAGGAGGACCGGGAGCCCGUGCC [#2 Exclusion - Tryptophan B Attempt #20 (HarryS)]”, for which the “apparent KD of K4 kissing-loop reporter” value is, setting by setting: (input ligand: FMN 200 uM) 149 nM; (input ligand: arginine 13.2 mM) 220 nM; (input ligand: none) 143 nM; under setting [1], 145 nM; under setting [2], 119 nM.

Consider “GGCAGAGCGCGAAGGAGCGCCCUGACAGGUUGCUGCCGUGGGCAGUGAUGUUGCUCAGUCCGGCAGGUAGGUCGCGUGCUCUGCC”, for which the “apparent KD of K4 kissing-loop reporter” value runs as follows: (input ligand: FMN 200 uM) 167 nM; (input ligand: arginine 13.2 mM) 115 nM; (input ligand: none) 225 nM; under setting [1], 116 nM; under setting [2], 148 nM.

On to “GGCAGUGAUGUUGCCAGUGGCGGAUGCGAAGGAGCGCGGUGAGACGCAGGUAGGUCGCGCAUUGAAAUUGCUGUCACUAGGAUGC [whbob_Ex_Arginine_A_2t129]”, for which the “apparent KD of K4 kissing-loop reporter” value (input ligand: FMN 200 uM) turned out to be 272 nM; the “apparent KD of K4 kissing-loop reporter” value (input ligand: arginine 13.2 mM) came out at 262 nM; the “apparent KD of K4 kissing-loop reporter” value (input ligand: none) is 267 nM; the “apparent KD of K4 kissing-loop reporter” value under setting [1] was determined as 313 nM; the “apparent KD of K4 kissing-loop reporter” value under setting [2] stood at 212 nM.

As to “GGCAGUGAUGUUGCCUAAGCAACGCAUGCAGAGGAUAUUCGUUCGGGAAGAAGGCUGCAGCGUUCUCUCGUCAGUGAUGUUGGCG [Same State FMN A GF 24]”, the “apparent KD of K4 kissing-loop reporter” value was 140 nM (input ligand: FMN 200 uM); 115 nM (input ligand: arginine 13.2 mM); 127 nM (input ligand: none); 130 nM under setting [1]; 114 nM under setting [2].

For “GGCAUGGUGGCGCGGCUGCCAUGCGCUUGGGAGGAUAUGUUUCGUGACAGAAGGCCCAGUGAUGUUGGGUCUGUUCAAAAGGACU [Onrabe]”, the “apparent KD of K4 kissing-loop reporter” value is 447 nM (input ligand: FMN 200 uM); 149 nM (input ligand: arginine 13.2 mM); 133 nM (input ligand: none); 137 nM under setting [1]; 113 nM under setting [2].

Take “GGCCACGGGCGAGGAUAUGGGCAUGAUUCAUCCUGGAGUGAUGUUCCAGGUCCUACGUUUCGAGCACCAGAAGGCGUUUGUUGCU [Biazaqure]”: the “apparent KD of K4 kissing-loop reporter” value is, setting by setting: (input ligand: FMN 200 uM) 166 nM; (input ligand: arginine 13.2 mM) 521 nM; (input ligand: none) 646 nM; under setting [1], 489 nM; under setting [2], 524 nM.

In the case of “GGCCCGGGCGCGGCCGCCACUCCCUCGUACCGCAAGGUAUGAUACCGAGUGAUGUUCGGUUGGAGGAGGACCGGGCGCCCGGGCC [#2 Exclusion - Tryptophan B Attempt #5 (HarryS)]”, the “apparent KD of K4 kissing-loop reporter” value reads like this: (input ligand: FMN 200 uM) 122 nM; (input ligand: arginine 13.2 mM) 101 nM; (input ligand: none) 108 nM; under setting [1], 77.4 nM; under setting [2], 91.1 nM.

Consider “GGCCUGGUCGCCUAGUGAUUGUCGGUAGGACGAGGACCGGUACGGCCGCCACUCGGCUUACCCAGUGAUGUUGGGUAUCCGUGGC [Onercelama]”, for which the “apparent KD of K4 kissing-loop reporter” value by setting is: (input ligand: FMN 200 uM) 194 nM; (input ligand: arginine 13.2 mM) 136 nM; (input ligand: none) 177 nM; under setting [1], 176 nM; under setting [2], 235 nM.

“GGCGCUGCCUGUGCCGCCCUCCUCGUCCCUCGAGGACCGGUACGGCCGCCACUCGAGUGAUGUUCGGGUAGCCCUCCCUGCCAGC [BDazzled - #23 Exc. Tryptophan A]”: the “apparent KD of K4 kissing-loop reporter” value was found to be 585 nM (input ligand: FMN 200 uM); 407 nM (input ligand: arginine 13.2 mM); 567 nM (input ligand: none); 511 nM under setting [1]; 340 nM under setting [2].

On to “GGCGGCCGCGCGCAAGCGCGGCCGGCCGAUACCAGCGCGCCGGCGCGCCCUUGGCAGCGGCGCCGAGUGAUGUUCGGCCUGCCGG [#2 Same State - Theophylline A Attempt #9 (HarryS)]”, for which the “apparent KD of K4 kissing-loop reporter” value (input ligand: FMN 200 uM) came out at 477 nM; the “apparent KD of K4 kissing-loop reporter” value (input ligand: arginine 13.2 mM) was 267 nM; the “apparent KD of K4 kissing-loop reporter” value (input ligand: none) is 449 nM; the “apparent KD of K4 kissing-loop reporter” value under setting [1] was 374 nM; the “apparent KD of K4 kissing-loop reporter” value under setting [2] is 401 nM.

“GGCGGGUGCCCGUAAGGGUGCCCGGCCGAUACCAGCGCGACGGCGCGCCCUUGGCAGCGGCGCCGAGUGAUGUUCGGCCUGCCGU [#2 Same State - Theophylline A Attempt #24 (HarryS)]”: the “apparent KD of K4 kissing-loop reporter” value was 92.7 nM (input ligand: FMN 200 uM); 105 nM (input ligand: arginine 13.2 mM); 90.6 nM (input ligand: none); 84.5 nM under setting [1]; 151 nM under setting [2].

For “GGCUUGCCAGUGAUGUUGGCAUAUUCUGAAGGAGCGCGUGAAAACGCAGGUAGGUCGCAGAACCUUGCCAACUAUUUUAGUUGCC [Ex Arginine A K4 26]”, the “apparent KD of K4 kissing-loop reporter” value runs as follows: (input ligand: FMN 200 uM) 242 nM; (input ligand: arginine 13.2 mM) 210 nM; (input ligand: none) 237 nM; under setting [1], 334 nM; under setting [2], 210 nM.

“GGGAAACCCAAUCAUACGGCGGUUCUUAGUCGAGGACCGGUACGGCCGCCACUCGAACUUGCUAGUGAUGUUAGCUUAUCGAGCU”: the “apparent KD of K4 kissing-loop reporter” value was found to be 221 nM (input ligand: FMN 200 uM); 296 nM (input ligand: arginine 13.2 mM); 253 nM (input ligand: none); 265 nM under setting [1]; 162 nM under setting [2].

Take “GGGAGUAGUGCGGCCGCCACUGAGAAAGAAGAAGAAUAUAGUGAUGUUAUAUAGGAAAUAAAGAACAGGACCGGGCAUUAGAUUU [SSTRyptB.N]”: the “apparent KD of K4 kissing-loop reporter” value was found to be 269 nM (input ligand: FMN 200 uM); 216 nM (input ligand: arginine 13.2 mM); 244 nM (input ligand: none); 210 nM under setting [1]; 149 nM under setting [2].

Regarding “GGGAGUAGUGCGGCCGCCACUGAGAAAGAAGAAGAAUAUAGUGAUGUUAUAUAGGAAAUAAAGAAUAGGACCGGGCAUUAGAUUU [SSTRyptB.M]”, the “apparent KD of K4 kissing-loop reporter” value is, setting by setting: (input ligand: FMN 200 uM) 259 nM; (input ligand: arginine 13.2 mM) 211 nM; (input ligand: none) 235 nM; under setting [1], 181 nM; under setting [2], 211 nM.

“GGGAGUAGUGCGGCCGCCACUGAGAAAGUAGAAGAAUAUAGUGAUGUUAUAUAGGAAUAAAAGAACAGGACCGGGCAUUAGAUUU [SSTRyptB.U]”: the “apparent KD of K4 kissing-loop reporter” value reads like this: (input ligand: FMN 200 uM) 230 nM; (input ligand: arginine 13.2 mM) 214 nM; (input ligand: none) 230 nM; under setting [1], 203 nM; under setting [2], 174 nM.

As to “GGGAGUAGUGCGGCCGCCACUGUGAAAGAAGAAGAAUAUAGUGAUGUUAUAUAGGAAAUAAAGAAUAGGACCGGGCAUUAGAUUU [SSTRyptB.L]”, the “apparent KD of K4 kissing-loop reporter” value was determined as 282 nM (input ligand: FMN 200 uM); 190 nM (input ligand: arginine 13.2 mM); 221 nM (input ligand: none); 186 nM under setting [1]; 161 nM under setting [2].

With “GGGAGUAGUGCGGCCGCCACUGUGAAAGAAGAAGAAUAUAGUGAUGUUAUAUAGGAAGGGAAGAAUAGGACCGGGCAUUAGAUUU [SSTRyptB.aA]”, the “apparent KD of K4 kissing-loop reporter” value is 186 nM (input ligand: FMN 200 uM); 355 nM (input ligand: arginine 13.2 mM); 417 nM (input ligand: none); 190 nM under setting [1]; 186 nM under setting [2].
